Results as given in PMC7417313 (2020).

Target: C3b C3b (Homo sapiens, UniProt P01024)
Assay: SPR

C3b C3b, sequence (P01024 566-670): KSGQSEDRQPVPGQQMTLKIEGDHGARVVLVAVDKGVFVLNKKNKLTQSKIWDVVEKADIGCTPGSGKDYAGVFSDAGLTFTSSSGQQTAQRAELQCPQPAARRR

- Kd: 100 nM
B1: Factor H (protein)
chain: EDCNELPPRRNTEILTGSWSDQTYPEGTQAIYKCRPGYRSLGNVIMVCRKGEWVALNPLRKCQKRPCGHPGDTPFGTFTLTGGNVFEYGVKAVYTCNEGYQLLGEINYRECDTDGWTNDIPICEVVKCLPVTAPENGKIVSSAMEPDREYHFGQAVRFVCNSGYKIEGDEEMHCSDDGFWSKEKPKCVEISCKSPDVINGSPISQKIIYKENERFQYKCNMGYEYSERGDAVCTESGWRPLPSCEEKSCDNPYIPNGDYSPLRIKHRTGDEITYQCRNGFYPATRGNTAKCTSTGWIPAPRCTLKPCDYPDIKHGGLYHENMRRPYFPVAVGKYYSYYCDEHFETPSGSYWDHIHCTQDGWSPAVPCLRKCYFPYLENGYNQNYGRKFVQGKSIDVACHPGYALPKAQTTVTCMENGWSPTPRCIRVKTCSKSSIDIENGFISESQYTYALKEKAKYQCKLGYVTADGETSGSITCGKDGWSAQPTCIKSCDIPVFMNARTKNDFTWFKLNDTLDYECHDGYESNTGSTTGSIVCGYNGWSDLPICYERECELPKIDVHLVPDRKKDQYKVGEVLKFSCKPGFTIVGPNSVQCYHFGLSPDLPICKEQVQSCGPPPELLNGNVKEKTKEEYGHSEVVEYYCNPRFLMKGPNKIQCVDGEWTTLPVCIVEESTCGDIPELEHGWAQLSSPPYYYGDSVEFNCSESFTMIGHRSITCIHGVWTQLPQCVAIDKLKKCKSSNLIILEEHLKNKKEFDHNSNIRYRCRGKEGWIHTVCINGRWDPEVNCSMAQIQLCPPPPQIPNSHNMTTTLNYRDGEKVSVLCQENYLIQEGEEITCKDGRWQSIPLCVEKIPCSQPPQIEHGTINSSRSSQESYAHGTKLSYTCEGGFRISEENETTCYMGKWSSPPQCEGLPCKSPPEISHGVVAHMSDSYQYGEEVTYKCFEGFGIDGPAIAKCLGEKWSHPPSCIKTDCLSLPSFENAIPMGEKKDVYKAGEQVTYTCATYYKMDGASNVTCINSRWTGRPTCRDTSCVNPPTVQNAYIVSRQMSKYPSGERVRYQCRSPYEMFGDEEVMCLNGNWTEPPQCKDSTGKCGPPPPIDNGDITSFPLSVYAPASSVEYQCQNLYQLEGNKRITCRNGQWSEPPKCLHPCVISREIMENYNIALRWTAKQKLYSRTGESVEFVCKRGYRLSSRSHTLRTTCWDGKLEYPTCAKR
